The labels stand for the following.
B3: human C5a receptor (C5aR) (receptor)
chain: MDSFNYTTPDYGHYDDKDTLDLNTPVDKTSNTLRVPDILALVIFAVVFLVGVLGNALVVWVTAFEAKRTINAIWFLNLAVADFLSCLALPILFTSIVQHHHWPFGGAACSILPSLILLNMYASILLLATISADRFLLVFKPIWCQNFRGAGLAWIACAVAWGLALLLTIPSFLYRVVREEYFPPKVLCGVDYSHDKRRERAVAIVRLVLGFLWPLLTLTICYTFILLRTWSRRATRSTKTLKVVVAVVASFFIFWLPYQVTGIMMSFLEPSSPTFLLLKKLDSLCVSFAYINCCINPIIYVVAGQGFQGRLRKSLPSLLRNVLTEESVVRESKSFTRSTVDTMAQKTQAV
notes: human C5a receptor (C5aR), expressed on transfected RBL-2H3 or CHO cells; also called hC5aR; RBL-C5aR; source: RBL-2H3 or CHO cells, transfected by electroporation, on cells

For assay [1], the target named is B3. In words: flow cytometry on cells; competition: RBL cells transfected with human C5aR pre-treated with unlabelled CHIPS or human C5a, then 210 nM FITC-rCHIPS(28-149); cell-associated fluorescence. Conditions: one partner purified.
For assay [2], the target named is T1, recombinant chemotaxis inhibitory protein of Staphylococcus aureus, residues 28-149 (rCHIPS_(28–149)) (Staphylococcus aureus N315 (MRSA), UniProt A6QIG7 28-149).
T1 construct: three N-terminal residues, GlyAlaMet, left from the vector after TEV cleavage; Uniformly 15N-labelled (isotope only) in the NMR titrations; unlabelled in ITC and in the cell assays; also called unlabelled CHIPS; ^15N-labelled CHIPS_(28–149); source: E. coli BL21 (DE3), purified (glutathione sepharose 4B, TEV cleavage, Mono S); not shown: GST, N-terminal, cleaved
The assay can be described thus: ITC; CHIPS(28-149) (0.2 mM) titrated with the peptides; non-linear regression; data not shown. Conditions: both partners purified. (In general: Isothermal titration calorimetry measures the heat released or taken up as one component is titrated into another.)

Assay [3] concerns the target T1, recombinant chemotaxis inhibitory …. In words: NMR titration; 1H-15N HSQC of 0.7 mM 15N-CHIPS(28-149), unlabelled lyophilized ligand added to ligand:CHIPS ratios 0, 1:2, 3:4, 1:1, 5:4; 25 °C, 100 mM phosphate pH 7.0, 200 mM NaCl, 1 mM DTT, 0.5 mM EDTA; Kd from fast-exchange shift curves, averaged over residues. The following applies: both partners purified.
In assay [4] the target is T2, FITC-labelled recombinant CHIPS_(28–149) (Staphylococcus aureus N315 (MRSA), UniProt A6QIG7 28-149, FITC label (site not stated)).
T2 construct: three N-terminal residues, GlyAlaMet, left from the vector after TEV cleavage; The discussion once calls the labelled protein of the serum assay rCHIPS_(26–141); results and methods say 28-149; also called FITC-rCHIPS_(28–149); FITC-CHIPS_(28–149); source: E. coli BL21 (DE3), purified (glutathione sepharose 4B, TEV cleavage, Mono S), FITC-labelled; not shown: GST, N-terminal, cleaved
The assay can be described thus: flow cytometry on cells; kinetics: 300 nM FITC-CHIPS(28-149) added to C5aR-transfected RBL cells, dissociation started with 14 μM unlabelled CHIPS(28-149); Kd from kobs and koff, five experiments. Conditions: one partner purified. (In general: Flow cytometry measures light scatter and fluorescence of single cells or particles in a stream.)

The values that follow come from PMC2646901, “Characterisation of receptor binding by the chemotaxis inhibitory protein of Staphylococcus aureus and the effects of the host immune response” (Molecular Immunology, 2007).

B1: recombinant human C5a protein (rh-C5a) (ligand)
chain: TLQKKIEEIAAKYKHSVVKKCCYDGACVNNDETCEQRAARISLGPRCIKAFTECCVVASQLRANISHKDMQLGR
notes: source: expressed and purified according to a previously described protocol (Paczkowski et al., 1999)
As usually defined, the IC50 is the concentration at which inhibition is half-maximal. B1: in assay [1], the IC50 is approximately 0.25 µM.

B2: human C5aR peptide of the N-terminal extracellular region M1-D37 with additional -APAPAC on the C-terminus (hC5aR_(1–37)) (peptide)
peptide: MDSFNYTTPDYGHYDDKDTLDLNTPVDKTSNTLRVPDAPAPAC
notes: human C5a receptor, N-terminal extracellular region, residues M1-D37; also called human C5aR_(1–37) peptide; source: gift from Dr M. Barker, Division of Genomic Medicine, Sheffield
In general, Kd refers to the equilibrium constant for the complex coming apart. As usually defined, the stoichiometry N is the number of molecules, sites or subunits per partner or assembly. Take B2: in assay [2], the Ka worked out at 25000 M⁻¹, the dissociation constant (Kd) is approximately 40 µM and the “stoichiometry N” value turned out to be 1.4 ± 0.8. Moreover, the Kd in assay [3] is 8.25 µM.
For B3, the Kd in assay [4] was 0.00722 ± 0.00666 µM.
